The target of assay [1] is T1, Terbium (Tb) labeled-SNAP tagged ROBO2 expressed on HEK293 cells (Homo sapiens (Human), UniProt Q9HCK4 22-1378, terbium label on the SNAP tag).
T1 construct: also called Tb-labeled ROBO2 cells; ROBO2 expressing cells; not shown: SNAP tag
T1 sequence: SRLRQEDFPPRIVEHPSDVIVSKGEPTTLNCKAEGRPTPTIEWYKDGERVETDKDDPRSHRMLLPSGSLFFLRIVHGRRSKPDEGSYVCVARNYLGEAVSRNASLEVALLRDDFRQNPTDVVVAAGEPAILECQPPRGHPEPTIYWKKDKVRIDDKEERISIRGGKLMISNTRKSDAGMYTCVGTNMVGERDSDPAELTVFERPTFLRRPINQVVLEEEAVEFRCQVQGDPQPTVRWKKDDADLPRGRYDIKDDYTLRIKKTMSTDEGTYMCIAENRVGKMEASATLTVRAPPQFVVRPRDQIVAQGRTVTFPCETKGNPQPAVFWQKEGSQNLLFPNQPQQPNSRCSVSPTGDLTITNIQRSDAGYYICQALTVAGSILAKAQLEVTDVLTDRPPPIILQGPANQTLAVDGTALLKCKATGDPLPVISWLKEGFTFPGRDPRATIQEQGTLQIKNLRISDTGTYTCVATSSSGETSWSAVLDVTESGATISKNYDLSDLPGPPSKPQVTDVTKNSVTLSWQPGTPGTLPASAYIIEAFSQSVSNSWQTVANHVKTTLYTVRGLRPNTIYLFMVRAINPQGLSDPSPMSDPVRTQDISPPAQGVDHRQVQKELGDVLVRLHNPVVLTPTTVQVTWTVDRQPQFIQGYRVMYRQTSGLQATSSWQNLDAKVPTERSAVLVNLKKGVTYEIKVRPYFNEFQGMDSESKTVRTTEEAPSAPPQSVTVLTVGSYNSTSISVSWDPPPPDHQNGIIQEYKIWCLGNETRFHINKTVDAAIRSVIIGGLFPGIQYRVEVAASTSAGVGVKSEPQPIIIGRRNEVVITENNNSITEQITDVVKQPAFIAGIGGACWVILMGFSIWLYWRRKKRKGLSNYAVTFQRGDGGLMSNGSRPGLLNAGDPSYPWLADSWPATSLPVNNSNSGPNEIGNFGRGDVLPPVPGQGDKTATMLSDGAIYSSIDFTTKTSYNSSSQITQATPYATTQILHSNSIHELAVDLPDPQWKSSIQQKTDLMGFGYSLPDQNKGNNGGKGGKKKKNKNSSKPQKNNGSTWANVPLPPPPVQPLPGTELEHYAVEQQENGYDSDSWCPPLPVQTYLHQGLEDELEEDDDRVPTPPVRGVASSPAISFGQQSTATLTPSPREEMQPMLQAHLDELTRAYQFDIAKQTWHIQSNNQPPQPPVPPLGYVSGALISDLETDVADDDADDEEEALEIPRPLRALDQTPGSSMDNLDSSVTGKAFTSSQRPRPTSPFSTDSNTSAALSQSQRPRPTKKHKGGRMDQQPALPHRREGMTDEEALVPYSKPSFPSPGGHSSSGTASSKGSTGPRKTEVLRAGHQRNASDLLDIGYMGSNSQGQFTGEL
The assay is described as follows: HTRF competition, competitor d2-SLIT2-N, ROBO2 HEK293 cells. How it is done: A ROBO2-SLIT2-N homogenous time resolved fluorescence (HTRF) assay was used to identify antibodies that were capable of blocking SLIT2-N binding to ROBO2. In this assay, terbium (Tb) labeled-SNAP tagged ROBO2 expressing HEK293 cells were incubated with 5 nM d2-labeled SLIT-2N in the presence of 1 nM anti-ROBO2 antibodies for 1 hour. After incubation, fluorescence at 665 nm and 620 nm was measured on an Envision multilabel plate reader. […] Maximal signal was defined as the HTRF ratio of Tb-labeled ROBO2 cells with d2-labeled SLIT2-N in the absence of antibody, the minimum signal was defined as the HTRF ratio of Tb-labeled ROBO2 expressing HEK293 cells only. One nanomolar (nM) parental antibody, 93H2, was unable to block the HTRF assay, therefore this concentration was selected to identify clones with a higher affinity than 93H2 (Table 2, HTRF Ratio column). […] Antibodies derived from chain (Abcs series) or CDR shuffling (CTIR-2 series) were evaluated in 11-point, 5-fold dilution series with a top concentration of 1500 nM (Table 2 HTRF IC₅₀).
Neutralization of SLIT2-N binding to ROBO2 was assessed ROBO2:SLIT2-N homogenous time resolved fluorescence (HTRF) assay as described in Example 2. Briefly the HTRF assay was performed as follows: terbium (Tb) labeled-SNAP tagged ROBO2 expressing HEK293 cells were incubated with d2-labeled SLIT-2N in the presence of anti-ROBO2 antibodies for 1 hour. After incubation, fluorescence at 665 nm and 620 nm was measured on an Envision multi-label plate reader. […] Maximal signal was defined as the HTRF ratio of Tb-labeled ROBO2 cells with d2-labeled SLIT2-N in the absence of antibody, the minimum signal was defined as the HTRF ratio of Tb-labeled ROBO2 expressing HEK293 cells only.

In the next assay the target is T2, Human ROBO2 Ig1-Ig2-His (human, UniProt Q9HCK4 31-220).
T2 construct: the His tag is named only in the SPR paragraphs; the Octet and ELISA paragraphs print 'ROBO2 Ig1-Ig2' without a tag; also called ROBO2 Ig1-2; Human ROBO2 Ig 1,2
T2 sequence: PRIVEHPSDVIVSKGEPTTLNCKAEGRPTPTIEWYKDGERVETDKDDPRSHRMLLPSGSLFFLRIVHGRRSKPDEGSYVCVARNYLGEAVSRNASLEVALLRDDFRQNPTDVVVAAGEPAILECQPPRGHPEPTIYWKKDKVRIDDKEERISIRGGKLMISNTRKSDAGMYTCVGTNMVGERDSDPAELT
Description: SPR, antibody on CM5 chip, ROBO2 Ig1-Ig2-His. The protocol: Based upon several criteria, Abcs25 and Abcs35 were selected for further characterization. Using flow cytometry, improvement in the binding EC₅₀ to human ROBO2 relative to the parental 93H2 was evaluated. Starting at 6.7 nM, 11-point, 3-fold dilution series were made for each antibody and used to stain HEK293 overexpressing human ROBO2 as described above for the ROBO2 fold selectivity (Example 2). […] In addition to measuring improved binding to human ROBO2, it was important to ensure that high affinity binding to both cynomolgus monkey ROBO2 and rat ROBO2 was maintained. Using HEK293 cells overexpressing either cynomolgus monkey ROBO2 or rat ROBO2, the relative dose-dependent binding of 93H2, Abcs25 and Abcs35 was evaluated as described above. High affinity binding to both cynomolgus monkey and rat ROBO2 was maintained in Abcs25 and Abcs35 (Table 4). […] Briefly, Abcs35 was immobilized to 300 resonance units (RU) on a CM5 chip. Association of ROBO2 Ig1-Ig2-His (ROBO2) was measured over 5 minutes and dissociation was followed for a period of 10 minutes.
Affinity was measured by standard SPR methods as described in Example 3. Briefly, antibodies were immobilized to a specific measure of resonance units (RU) on a CM5 chip. Association of ROBO2 Ig1-Ig2-His (ROBO2) and dissociation will be followed for a period of time.

B1: Abcs35-E (antibody, human IgG1, kappa)
heavy: QVQLVQSGAEVKKPGASVKVSCKASGYTFTGYYMHWVRQAPGQGLEWMGWINPKNGDTEFPQKFQGRVTMTRDTSITTAYMDLSRLRSDDTAVYYCARESGDDAFDIWGQGTMVTVSSASTKGPSVFPLAPSSKSTSGGTAALGCLVKDYFPEPVTVSWNSGALTSGVHTFPAVLQSSGLYSLSSVVTVPSSSLGTQTYICNVNHKPSNTKVDKKVEPKSCDKTHTCPPCPAPEAAGAPSVFLFPPKPKDTLMISRTPEVTCVVVDVSHEDPEVKFNWYVDGVEVHNAKTKPREEQYNSTYRVVSVLTVLHQDWLNGKEYKCKVSNKALPAPIEKTISKAKGQPREPQVYTLPPSREEMTKNQVSLTCLVKGFYPSDIAVEWESNGQPENNYKTTPPVLDSDGSFFLYSKLTVDKSRWQQGNVFSCSVMHEALHNHYTQKSLSLSPGK
light: DIVMTQSPSSLSASVGDRVTITCRASQSISSYLNWYQQKPGKAPKLLIYAASSLQSGVPSRFSGSGSGTDFTLTISSLQPEDFATYYCQQSVGLFFGGGTKVEIKRTVAAPSVFIFPPSDEQLKSGTASVVCLLNNFYPREAKVQWKVDNALQSGNSQESVTEQDSKDSTYSLSSTLTLSKADYEKHKVYACEVTHQGLSSPVTKSFNRGEC
notes: germlined variant of Abcs35; also called Abcs35-eE
Take B1: in assay [1], the IC50 came to 0.0651 nM. The same molecule returned a Kd in the assay with Human ROBO2 Ig1-Ig2-His of 0.128 nM.

B2: Abcs35-G (antibody, human IgG1, kappa)
heavy: QVQLVQSGAEVKKPGASVKVSCKASGYTFTGYYMHWVRQAPGQGLEWMGWINPKNGDTEFPQKFQGRVTMTRDTSITTAYMELSRLRSDDTAVYYCARESGDDAFDIWGQGTMVTVSSASTKGPSVFPLAPSSKSTSGGTAALGCLVKDYFPEPVTVSWNSGALTSGVHTFPAVLQSSGLYSLSSVVTVPSSSLGTQTYICNVNHKPSNTKVDKKVEPKSCDKTHTCPPCPAPEAAGAPSVFLFPPKPKDTLMISRTPEVTCVVVDVSHEDPEVKFNWYVDGVEVHNAKTKPREEQYNSTYRVVSVLTVLHQDWLNGKEYKCKVSNKALPAPIEKTISKAKGQPREPQVYTLPPSREEMTKNQVSLTCLVKGFYPSDIAVEWESNGQPENNYKTTPPVLDSDGSFFLYSKLTVDKSRWQQGNVFSCSVMHEALHNHYTQKSLSLSPGK
light: DIVMTQSPSSLSASVGDRVTITCRASQSISSYLNWYQQKPGKAPKLLIYAASSLQSGVPSRFSGSGSGTDFTLTISSLQPEDFATYYCQQSVGLFFGGGTKVEIKRTVAAPSVFIFPPSDEQLKSGTASVVCLLNNFYPREAKVQWKVDNALQSGNSQESVTEQDSKDSTYSLSSTLTLSKADYEKHKVYACEVTHQGLSSPVTKSFNRGEC
notes: germlined variant of Abcs35
Turning to B2, the IC50 in assay [1] stood at 0.0754 nM. Besides, binding with Human ROBO2 Ig1-Ig2-His was characterised by a dissociation constant (Kd) of 0.131 nM.

B3: Abcs35-F (antibody, human IgG1, kappa)
heavy: QVQLVQSGAEVKKPGASVKVSCKASGYTFTGYYMHWVRQAPGQGLEWMGWINPKNGDTEFPQKFQGRVTMTRDTSISTAYMDLSRLRSDDTAVYYCARESGDDAFDIWGQGTMVTVSSASTKGPSVFPLAPSSKSTSGGTAALGCLVKDYFPEPVTVSWNSGALTSGVHTFPAVLQSSGLYSLSSVVTVPSSSLGTQTYICNVNHKPSNTKVDKKVEPKSCDKTHTCPPCPAPEAAGAPSVFLFPPKPKDTLMISRTPEVTCVVVDVSHEDPEVKFNWYVDGVEVHNAKTKPREEQYNSTYRVVSVLTVLHQDWLNGKEYKCKVSNKALPAPIEKTISKAKGQPREPQVYTLPPSREEMTKNQVSLTCLVKGFYPSDIAVEWESNGQPENNYKTTPPVLDSDGSFFLYSKLTVDKSRWQQGNVFSCSVMHEALHNHYTQKSLSLSPGK
light: DIVMTQSPSSLSASVGDRVTITCRASQSISSYLNWYQQKPGKAPKLLIYAASSLQSGVPSRFSGSGSGTDFTLTISSLQPEDFATYYCQQSVGLFFGGGTKVEIKRTVAAPSVFIFPPSDEQLKSGTASVVCLLNNFYPREAKVQWKVDNALQSGNSQESVTEQDSKDSTYSLSSTLTLSKADYEKHKVYACEVTHQGLSSPVTKSFNRGEC
notes: germlined variant of Abcs35
B3: the IC50 in assay [1] worked out at 0.0766 nM. Also, binding in the assay with Human ROBO2 Ig1-Ig2-His was put at a Kd of 0.194 nM.

B4: Abcs35-H (antibody, human IgG1, kappa)
heavy: QVQLVQSGAEVKKPGASVKVSCKASGYTFTGYYMHWVRQAPGQGLEWMGWINPKNGDTEFPQKFQGRVTMTRDTSISTAYMELSRLRSDDTAVYYCARESGDDAFDIWGQGTMVTVSSASTKGPSVFPLAPSSKSTSGGTAALGCLVKDYFPEPVTVSWNSGALTSGVHTFPAVLQSSGLYSLSSVVTVPSSSLGTQTYICNVNHKPSNTKVDKKVEPKSCDKTHTCPPCPAPEAAGAPSVFLFPPKPKDTLMISRTPEVTCVVVDVSHEDPEVKFNWYVDGVEVHNAKTKPREEQYNSTYRVVSVLTVLHQDWLNGKEYKCKVSNKALPAPIEKTISKAKGQPREPQVYTLPPSREEMTKNQVSLTCLVKGFYPSDIAVEWESNGQPENNYKTTPPVLDSDGSFFLYSKLTVDKSRWQQGNVFSCSVMHEALHNHYTQKSLSLSPGK
light: DIVMTQSPSSLSASVGDRVTITCRASQSISSYLNWYQQKPGKAPKLLIYAASSLQSGVPSRFSGSGSGTDFTLTISSLQPEDFATYYCQQSVGLFFGGGTKVEIKRTVAAPSVFIFPPSDEQLKSGTASVVCLLNNFYPREAKVQWKVDNALQSGNSQESVTEQDSKDSTYSLSSTLTLSKADYEKHKVYACEVTHQGLSSPVTKSFNRGEC
notes: germlined variant of Abcs35
In assay [1], B4 registered an IC50 of 0.0829 nM. Also, binding with Human ROBO2 Ig1-Ig2-His was characterised by a dissociation constant (Kd) of 0.194 nM.
